Laboratory results: US20220125891A1 (OSAKA UNIVERSITY, published 2022)
Positions of bridges follow the written chain, without caps; N, C: chain ends. Non-standard residues stand in square brackets, D forms with d. No end group written: not given here. NMeA = CN[C@@H](C)C(=O)O; dNMeA = CN[C@H](C)C(=O)O

T1: full-length human Regnase-1 with a FLAG tag on the N-terminal side and a biotin ligase BirA recognition … (human, UniProt Q5D1E8 1-599, biotinylated where required ; Biotinylated at the BirA recognition sequence where required. That sequence is not in the letters.)
T1 sequence: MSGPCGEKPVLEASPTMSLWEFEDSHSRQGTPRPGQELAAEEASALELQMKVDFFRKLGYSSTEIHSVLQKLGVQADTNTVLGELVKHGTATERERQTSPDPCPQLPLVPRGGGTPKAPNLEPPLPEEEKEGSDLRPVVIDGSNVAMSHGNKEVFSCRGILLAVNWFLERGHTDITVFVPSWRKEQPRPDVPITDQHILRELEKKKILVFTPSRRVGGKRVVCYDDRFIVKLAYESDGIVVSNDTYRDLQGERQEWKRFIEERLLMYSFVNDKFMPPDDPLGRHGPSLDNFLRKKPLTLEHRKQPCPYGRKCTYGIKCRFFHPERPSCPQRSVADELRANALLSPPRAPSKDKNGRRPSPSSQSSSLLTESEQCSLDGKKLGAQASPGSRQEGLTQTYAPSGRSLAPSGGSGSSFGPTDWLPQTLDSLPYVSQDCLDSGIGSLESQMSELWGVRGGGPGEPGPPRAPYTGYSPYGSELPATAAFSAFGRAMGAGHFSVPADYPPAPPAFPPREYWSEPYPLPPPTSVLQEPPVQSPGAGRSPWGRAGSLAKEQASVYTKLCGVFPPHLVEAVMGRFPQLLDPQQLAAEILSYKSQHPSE

T2: Reg1_301-599 (human Regnase-1 amino acids 301 to 599, FLAG tag on the N-terminal side, BirA recognition … (human))
T2 sequence (Q5D1E8 301-599, looked up): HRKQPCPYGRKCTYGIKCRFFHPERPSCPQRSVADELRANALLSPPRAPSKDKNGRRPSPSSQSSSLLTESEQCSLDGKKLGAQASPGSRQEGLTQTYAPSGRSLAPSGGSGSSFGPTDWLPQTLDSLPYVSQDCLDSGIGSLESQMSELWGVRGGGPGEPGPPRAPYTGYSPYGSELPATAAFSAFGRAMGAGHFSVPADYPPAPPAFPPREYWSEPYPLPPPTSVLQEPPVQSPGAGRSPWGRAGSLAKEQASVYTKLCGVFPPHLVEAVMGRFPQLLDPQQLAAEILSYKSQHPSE


Key:
[1] = molecular target: T1, full-length human Regnase-1 with a FLAG …; assay: cell-based or functional assay
[2] = molecular target: T3, ΔCTD_Reg1 (human Regnase-1 amino acids 1 to 546, FLAG tag on the N-terminal side, BirA recognition sequence … (human)); assay: cell-based or functional assay
[3] = molecular target: T2, Reg1_301-599 (human Regnase-1 amino …); assay: cell-based or functional assay
[4] = molecular target: T1, full-length human Regnase-1 with a FLAG …; assay: cell-based or functional assay; remark: listed apart in the source
[5] = molecular target: T3, ΔCTD_Reg1 (human Regnase-1 amino acids …); assay: cell-based or functional assay; remark: listed apart in the source
[6] = molecular target: T2, Reg1_301-599 (human Regnase-1 amino …); assay: cell-based or functional assay; remark: listed apart in the source
[7] = molecular target: T1, full-length human Regnase-1 with a FLAG …; assay: AlphaScreen, blocks TBK1 binding to FL_Reg1
[8] = molecular target: T1, full-length human Regnase-1 with a FLAG …; assay: AlphaScreen, blocks IKKβ binding to FL_Reg1
[9] = molecular target: T1, full-length human Regnase-1 with a FLAG …; assay: affinity selection-MS (SEC, LC/MS), 1 µM each

Binder	IC50, phosphorylation by TBK1 [1]	IC50, phosphorylation by TBK1 [2]	IC50, phosphorylation by TBK1 [3]	IC50, phosphorylation by IKKβ [4]	IC50, phosphorylation by IKKβ [5]	IC50, phosphorylation by IKKβ [6]	IC50 [7]	IC50 [8]	AS-MS ratio(%) [9]
[NMeA]RFRQWKWVYPD (lactam N-12) [PP13]	8.4 µM	17.7 µM	18 µM	3.6 µM	43.2 µM	23.2 µM	13.8 µM	16.9 µM	0.1%
[dNMeA]TYGHSSWYKIWD (lactam N-13) [PP9]	4.2 µM	6.6 µM	7.9 µM	2.7 µM	6.4 µM	6.2 µM	8.3 µM	10.6 µM	14.8%
[NMeA]NFNSAYYRAIWD (lactam N-13) [PP7]	2.2 µM	4.7 µM	4.6 µM	0.8 µM	4.5 µM	3 µM	17.9 µM	15.1 µM	15.8%
[NMeA]RYAVYQWIYPD (lactam N-12) [PP12]	12.7 µM	22.5 µM	19.6 µM	6.8 µM	27 µM	20.7 µM	> 62.1 µM	> 62.1 µM	21%
[NMeA]KFWIHHSFED (lactam N-11) [PP20]	38.5 µM	> 62.1 µM	> 62.1 µM	24.7 µM	> 62.1 µM	> 62.1 µM	47.6 µM	> 62.1 µM	85%
[NMeA]DIWFDYWDWD (lactam N-11) [PP17]	< 0.06 µM	0.3 µM	< 0.06 µM	0.5 µM	0.3 µM	0.7 µM	< 0.06 µM	< 0.06 µM	67.8%
[NMeA]WIWDFWNED (lactam N-10) [PP24]	35.7 µM	27.3 µM	34.8 µM	5.3 µM	4 µM	7.2 µM	7.7 µM	8.8 µM	51.1%
[NMeA]NYQSWYYRSIWD (lactam N-13) [PP10]	0.2 µM	0.2 µM	0.4 µM	0.5 µM	2.6 µM	1.8 µM	9.8 µM	11.4 µM	3.7%
[NMeA]NFSNSWYNIWD (lactam N-12) [PP16]	52.4 µM	38.1 µM	> 62.1 µM	20.6 µM	30.8 µM	42.2 µM	20.2 µM	> 62.1 µM	17.9%
[NMeA]NSWYINIWGHD (lactam N-12) [PP15]	8.5 µM	9.5 µM	17.4 µM	5.6 µM	31 µM	22 µM	13.7 µM	33.7 µM	66.7%
[dNMeA]EDTPEDDHD (lactam N-10) [PP25]	18.9 µM	16.1 µM	16.3 µM	27 µM	47.7 µM	27.6 µM	13.1 µM	> 62.1 µM	6.9%
[NMeA]KFAQFRWIYPD (lactam N-12) [PP11]	29.1 µM	55.6 µM	> 62.1 µM	22.3 µM	> 62.1 µM	> 62.1 µM	60.9 µM	> 62.1 µM	5.1%

More lines, now with the values ahead:

IC50, phosphorylation by TBK1 [1]	IC50, phosphorylation by TBK1 [2]	IC50, phosphorylation by TBK1 [3]	IC50, phosphorylation by IKKβ [4]	IC50, phosphorylation by IKKβ [5]	IC50, phosphorylation by IKKβ [6]	IC50 [7]	IC50 [8]	AS-MS ratio(%) [9]	Binder
2.9 µM	5.5 µM	6 µM	1.4 µM	7.8 µM	5.7 µM	6.5 µM	7.4 µM	6.2%	[dNMeA]SKYWNSWYNIWD (lactam N-13) [PP8]
0.6 µM	1.8 µM	0.9 µM	0.4 µM	0.2 µM	0.5 µM	< 0.06 µM	< 0.06 µM	71.6%	[NMeA]DIWFDYWDYD (lactam N-11) [PP18]
3.1 µM	5.2 µM	6.8 µM	1.6 µM	9 µM	6.5 µM	7.1 µM	20.1 µM	4.2%	[NMeA]RFGVWSWIYPD (lactam N-12) [PP14]
3.7 µM	4.6 µM	5.8 µM	5.4 µM	12.6 µM	10.1 µM	2.4 µM	5.8 µM	2.1%	[NMeA]VFYKIWYNWD (lactam N-11) [PP19]
13.5 µM	11.7 µM	17 µM	19.6 µM	39.3 µM	37.2 µM	5.6 µM	20.7 µM	15.1%	[NMeA]NSWYKIWGLD (lactam N-11) [PP21]
